In the assay the target is T1, recombinant PIF3-GST (Arabidopsis thaliana, UniProt O80536 1-524).
T1 sequence (looked up): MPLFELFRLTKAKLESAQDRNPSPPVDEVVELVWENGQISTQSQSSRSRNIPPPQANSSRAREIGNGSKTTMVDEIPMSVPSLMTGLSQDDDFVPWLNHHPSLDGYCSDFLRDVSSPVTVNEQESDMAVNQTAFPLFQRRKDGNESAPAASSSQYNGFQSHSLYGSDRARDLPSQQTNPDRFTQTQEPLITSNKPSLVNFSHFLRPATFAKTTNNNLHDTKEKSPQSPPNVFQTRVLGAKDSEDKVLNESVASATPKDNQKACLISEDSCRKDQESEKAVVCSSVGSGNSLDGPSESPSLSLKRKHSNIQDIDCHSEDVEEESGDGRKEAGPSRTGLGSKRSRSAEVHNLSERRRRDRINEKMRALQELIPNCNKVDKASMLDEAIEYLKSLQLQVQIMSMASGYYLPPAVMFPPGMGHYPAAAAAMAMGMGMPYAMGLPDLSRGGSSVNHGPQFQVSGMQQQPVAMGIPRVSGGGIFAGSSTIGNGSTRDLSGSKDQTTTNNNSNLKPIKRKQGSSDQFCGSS
Briefly: pull-down.

B1: His-tagged kinase domain of FER (518-816 amino acids, FER-KD) (domain or fragment)
chain: not shown
B1: the binding result is reported as “binds”.

Values taken from doi:10.1101/2023.02.02.526371 (bioRxiv, 2023).
